# Experimental data published in patent US20190111150A1 (AbbVie / Abbott, published 2019).
# Substitutions are numbered along the chain they refer to.
# T1: recombinant human FcγRIIa H131 (human, UniProt P12318 36-218, limits assumed)
# T1 construct: also called huFcγRIIa H131; FcγIIa H131
# T1 sequence (looked up): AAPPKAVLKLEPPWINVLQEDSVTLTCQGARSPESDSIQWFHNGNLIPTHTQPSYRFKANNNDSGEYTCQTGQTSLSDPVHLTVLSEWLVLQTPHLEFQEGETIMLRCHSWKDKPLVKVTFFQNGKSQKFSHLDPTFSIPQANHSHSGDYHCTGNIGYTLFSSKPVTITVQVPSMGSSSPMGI
# B1: anti-CD71-TF02.13-2011, protease-activated (cleaved) (antibody, not shown: small tags and cut ends)
# heavy: not shown
# light: DIQMTQSPSSLSASVGDRVTITCSASSSVYYMYWFQQKPGKAPKLWIYSTSNLASGVPSRFSGSGSGTDYTLTISSMQPEDFATYYCQQRRNYPYTFGQGTKLEIKRTVAAPSVFIFPPSDEQLKSGTASVVCLLNNFYPREAKVQWKVDNALQSGNSQESVTEQDSKDSTYSLSSTLTLSKADYEKHKVYACEVTHQGLSSPVTKSFNRGEC
# notes: the mask is released
# B2: anti-CD71-TF02.13-2011-vcMMAE E2, protease-activated (cleaved) (antibody, not shown: small tags and cut ends)
# heavy: not shown
# light: B1 light
# modifications: vc-MMAE on interchain cysteine thiols; drug load 2 per antibody; chain and positions not stated
# notes: m14 after protease treatment; the mask is released
# B3: anti-CD71 Ab21.12 LcB:HcC antibody (antibody, V domains shown)
# VH: QVQLVQSGAEVKKPGASVKMSCKASGYTFTSYWMHWVRQAPGQGLEWIGAIYPGNSETGYAQKFQGRATLTADTSTSTAYMELSSLRSEDTAVYYCTRENWDPGFAFWGQGTLITVSS
# VL: DIQMTQSPSSLSASVGDRVTITCSASSSVYYMYWFQQKPGKAPKLWIYSTSNLASGVPSRFSGSGSGTDYTLTISSMQPEDFATYYCQQRRNYPYTFGQGTKLEIK
# notes: Humanized; also called huCD71 21.12 Ab; anti-CD71 21.12 antibody
# B4: conjugated antibody anti-CD71 Ab21.12-vcMMAE E2 (antibody, V domains shown)
# VH: B3 VH
# VL: B3 VL
# modifications: vc-MMAE conjugated; DAR about 2 (E2); positions not given
# notes: Unmasked antibody drug conjugate of Ab21.12
# B5: humanized anti-CD71 antibody Ab21.10 LcB:HcA (antibody, V domains shown)
# VH: B3 VH with M20V, I48M, A68V, L70M, A72R, A79V, T97A, I114V
# VL: B3 VL
# notes: Detected with anti-human IgG
# B6: anti-CD71 activatable antibody anti-CD71-TF02.13-2011, intact (uncleaved) (antibody, human IgG1, kappa)
# heavy: not shown
# light: NLCTEHSAALDCRSYGGGSSGGSISSGLLSGRSDNPGGGSDIQMTQSPSSLSASVGDRVTITCSASSSVYYMYWFQQKPGKAPKLWIYSTSNLASGVPSRFSGSGSGTDYTLTISSMQPEDFATYYCQQRRNYPYTFGQGTKLEIKRTVAAPSVFIFPPSDEQLKSGTASVVCLLNNFYPREAKVQWKVDNALQSGNSQESVTEQDSKDSTYSLSSTLTLSKADYEKHKVYACEVTHQGLSSPVTKSFNRGEC
# notes: copies: 2 + 2
# B7: anti-CD71 conjugated activatable antibody anti-CD71-TF02.13-2011-vcMMAE E2, intact (uncleaved) (antibody, human IgG1, kappa)
# heavy: not shown
# light: B6 light
# modifications: vc-MMAE (maleimide caproyl-valine-citrulline linker with monomethyl auristatin E) on interchain cysteine thiols after partial TCEP reduction; drug load 2 per activatable antibody; chain and positions not stated
# notes: E2 = enriched for drug load 2 (DAR about 2); also called AADC; copies: 2 + 2
# Columns and labels:
# [1] = molecular target: T2, recombinant cynomolgus monkey CD71 extracellular domain (cynomolgus monkey, UniProt H9EXL1 89-760 (rhesus entry)); assay: ELISA, recombinant cynomolgus CD71 (R&D Systems) coated at 1 ug/mL; Kd(app)
# T2 construct: extracellular domain; also called rcCD71; monkey recombinant CD71
# Experimental: (§1) The amount of bound antibody in each sample was detected by incubation and detection by goat anti-human antibody conjugated to horseradish peroxidase and Ultra TMB (Thermo Fisher Scientific) detection.
# [2] = molecular target: T2, recombinant cynomolgus monkey CD71 …; assay: ELISA on coated recombinant cynomolgus CD71 ECD (rcCD71); Kapp
# Experimental: (§2) In the ELISA examples, recombinant cynomolgus or human CD71 ECD proteins were coated on ELISA plates, and then incubated with one of a range of concentrations of the test articles of the present disclosure, followed by measurement of the amount of bound test article with a secondary antibody.
# [3] = molecular target: T3, recombinant human CD71 extracellular domain (human, UniProt P02786 89-760); assay: ELISA, recombinant human CD71 (R&D Systems) coated at 1 ug/mL; Kd(app)
# T3 construct: extracellular domain; Treated as one molecule; also called rhCD71; human CD71 ECD
# Experimental: as §1
# [4] = molecular target: T4, human CD71 on the surface of human cell lines (human, UniProt P02786 1-760); assay: flow cytometry, average of 4 human cell lines (HCC1806, HT-29, NCI-H292, NCI-H520); Kapp
# T4 construct: whole, on cells; also called cell-surface human CD71; CD71 on BxPC3, NCI-H292, HCC1806, HT-29, NCI-H520 cells
# Text: (§3) The flow cytometry results reflect the average measured Kapp from four human cell lines (HCC1806 human breast cancer, HT-29 human colorectal cancer, NCI-H292 human lung cancer, and NCI-H520 human lung cancer) and one CHO-K1 cell line expressing cynomolgus monkey CD71.
# [5] = molecular target: T3, recombinant human CD71 extracellular …; assay: ELISA on coated recombinant human CD71 ECD (rhCD71); Kapp
# Experimental: as §2
# [6] = molecular target: T5, cynomolgus monkey CD71 on cells (cynomolgus monkey, UniProt H9EXL1 1-760 (rhesus entry)); assay: flow cytometry on CHO-K1 cells expressing cynomolgus CD71; Kapp
# T5 construct: whole, on cells; also called cell-surface cynomolgus CD71; CHO w/ Cynomolgus CD71
# Text: as §3
# [7] = molecular target: T2, recombinant cynomolgus monkey CD71 …; assay: ELISA on plate-coated recombinant cynomolgus CD71 (1 µg/mL), goat anti-human HRP, TMB, Abs 450
# Experimental: as §1
# recombinant mouse CD71 = molecular target: T6, recombinant mouse CD71 (mouse, UniProt Q62351 89-763); assay: ELISA on recombinant mouse CD71 (ECD)
# T6 construct: extracellular domain; also called mouse CD71 ECD
# [8] = molecular target: T5, cynomolgus monkey CD71 on cells; assay: flow cytometry on cynomolgus monkey primary kidney epithelial cells; apparent Kd (Kapp)
# [9] = molecular target: T4, human CD71 on the surface of human cell …; assay: FACS on NCI H292 cells; apparent Kd (Kapp)
# [10] = molecular target: T7, rat CD71 on rat H-4-II-E hepatoma cells (rat, UniProt Q99376 1-761); assay: flow cytometry on rat H-4-II-E hepatoma cells
# T7 construct: whole, on cells; also called rat CD71-expressing cell line
# [11] = molecular target: T4, human CD71 on the surface of human cell …; assay: flow cytometry on human BxPC3 cells; apparent Kd (Kapp)
# [12] = molecular target: T2, recombinant cynomolgus monkey CD71 …; assay: ELISA on recombinant CD71 ECD; apparent Kd (Kapp)
# [13] = molecular target: T3, recombinant human CD71 extracellular …; assay: ELISA on recombinant CD71 ECD; apparent Kd (Kapp)
# [14] = molecular target: T4, human CD71 on the surface of human cell …; assay: FACS on cells
# human FcRn = molecular target: T8, human FcRn (human, UniProt P55899 24-297; P61769 21-119); assay: SPR (Biacore), antibody immobilized, FcRn injected, pH 6.0, steady state affinity model; FcRn at pH 6.0
# T8 construct: also called Hu FcRn; neonatal Fc receptor
# Experimental: The surfaces were regenerated with an injection of 100 mM HCl for two seconds followed by HBS-EP+, pH 7.4. Samples were prepared and run in two running buffer systems, MES-EP+ pH 6.0 and HBS-EP pH 7.4. Three experiments with the use of three different CMS chips were run for each sample (each in duplicate) to account for instrument, surface and operator error. The results of these three experiments were averaged.
# (§4) All recombinant human FcγRIIIa V158 data and FcγRIIIa F158 data were fitted to 1:1 binding fit model with Rmax fixed local to account for variability in capture levels. Recombinant human FcγRIIb, FcγRIIa H131, and FcRn binding data were fitted to a steady state affinity model. Biacore T200 Evaluation Software Version 2.0 was used to fit all the data.
# [15] = molecular target: T1, recombinant human FcγRIIa H131; assay: SPR (Biacore), FcγR captured via 6xHis tag, steady state affinity model
# Experimental: (§5) Mouse anti-6×His antibodies were directly immobilized on a CMS chip by amine coupling according to manufacturer's protocol to the density of 10000 RU. Human FcγRs were then captured on Flow Cells 2, 3 and 4 to achieve capture level of the FcγRs of 250-500 RU. Flow Cell 1 was used as a reference surface. HBS-EP+ buffer (GE, Healthcare) was used as the running buffer. […] The chip surfaces were regenerated with an injection of 100 mM HCl at a flow rate of 100 μL/minute for two seconds over all four flow cells. Three experiments with the use of three different CMS chips were run for each sample (each in duplicate) to accommodate all types of experimental error (instrument, surface and operator). The results of these three experiments were averaged.
# as §4
# [16] = molecular target: T5, cynomolgus monkey CD71 on cells; assay: flow cytometry on CHO cells expressing cynomolgus CD71, Alexa Fluor 647 goat anti-human IgG (MFI)
# [17] = molecular target: T4, human CD71 on the surface of human cell …; assay: ratio of Kapp; flow cytometry, average of 4 human cell lines
# Text: as §3
# [18] = molecular target: T2, recombinant cynomolgus monkey CD71 …; assay: ratio of Kapp; ELISA on rcCD71
# Experimental: as §2
# [19] = molecular target: T9, recombinant human FcγRIIIa V158 (human, UniProt P08637 17-208); assay: SPR (Biacore), FcγR captured via 6xHis tag, 1:1 binding fit
# T9 construct: also called huFcγRIIIa V158
# Experimental: as §5, §4
# [20] = molecular target: T10, recombinant human FcγRIIIa F158 (human, UniProt P08637 17-208); assay: as above
# T10 construct: also called huFcγRIIIa F158
# Experimental: as §5, §4
# [21] = molecular target: T5, cynomolgus monkey CD71 on cells; assay: ratio of Kapp; flow cytometry on CHO-K1 cyno CD71
# Text: as §3
# [22] = molecular target: T3, recombinant human CD71 extracellular …; assay: ratio of Kapp; ELISA on rhCD71
# Experimental: as §2
# human FcγRI = human FcγRI (human, UniProt P12314 16-288, limits assumed); assay: FcγRI competition binding ELISA (results not shown)
# T5 sequence (chain, as listed by the source): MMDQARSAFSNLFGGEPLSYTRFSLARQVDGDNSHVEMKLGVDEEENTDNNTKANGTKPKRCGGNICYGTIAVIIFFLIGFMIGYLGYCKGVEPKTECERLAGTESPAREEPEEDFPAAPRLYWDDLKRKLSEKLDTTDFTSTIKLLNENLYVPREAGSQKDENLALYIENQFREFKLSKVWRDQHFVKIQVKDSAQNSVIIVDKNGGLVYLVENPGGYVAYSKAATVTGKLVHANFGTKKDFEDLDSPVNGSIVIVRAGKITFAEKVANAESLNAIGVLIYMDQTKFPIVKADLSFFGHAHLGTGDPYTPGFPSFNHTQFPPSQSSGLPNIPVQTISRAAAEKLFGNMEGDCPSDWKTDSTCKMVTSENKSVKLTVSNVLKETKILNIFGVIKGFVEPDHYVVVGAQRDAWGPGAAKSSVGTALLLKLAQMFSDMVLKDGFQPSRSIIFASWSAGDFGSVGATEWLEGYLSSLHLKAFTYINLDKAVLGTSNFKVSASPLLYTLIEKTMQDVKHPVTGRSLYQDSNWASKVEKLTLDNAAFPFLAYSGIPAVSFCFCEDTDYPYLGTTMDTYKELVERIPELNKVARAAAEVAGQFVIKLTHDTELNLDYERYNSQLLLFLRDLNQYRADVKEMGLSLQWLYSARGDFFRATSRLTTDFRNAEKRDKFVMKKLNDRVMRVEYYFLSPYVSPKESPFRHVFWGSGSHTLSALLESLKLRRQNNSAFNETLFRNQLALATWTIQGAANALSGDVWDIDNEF
# T4 sequence (P02786 whole entry): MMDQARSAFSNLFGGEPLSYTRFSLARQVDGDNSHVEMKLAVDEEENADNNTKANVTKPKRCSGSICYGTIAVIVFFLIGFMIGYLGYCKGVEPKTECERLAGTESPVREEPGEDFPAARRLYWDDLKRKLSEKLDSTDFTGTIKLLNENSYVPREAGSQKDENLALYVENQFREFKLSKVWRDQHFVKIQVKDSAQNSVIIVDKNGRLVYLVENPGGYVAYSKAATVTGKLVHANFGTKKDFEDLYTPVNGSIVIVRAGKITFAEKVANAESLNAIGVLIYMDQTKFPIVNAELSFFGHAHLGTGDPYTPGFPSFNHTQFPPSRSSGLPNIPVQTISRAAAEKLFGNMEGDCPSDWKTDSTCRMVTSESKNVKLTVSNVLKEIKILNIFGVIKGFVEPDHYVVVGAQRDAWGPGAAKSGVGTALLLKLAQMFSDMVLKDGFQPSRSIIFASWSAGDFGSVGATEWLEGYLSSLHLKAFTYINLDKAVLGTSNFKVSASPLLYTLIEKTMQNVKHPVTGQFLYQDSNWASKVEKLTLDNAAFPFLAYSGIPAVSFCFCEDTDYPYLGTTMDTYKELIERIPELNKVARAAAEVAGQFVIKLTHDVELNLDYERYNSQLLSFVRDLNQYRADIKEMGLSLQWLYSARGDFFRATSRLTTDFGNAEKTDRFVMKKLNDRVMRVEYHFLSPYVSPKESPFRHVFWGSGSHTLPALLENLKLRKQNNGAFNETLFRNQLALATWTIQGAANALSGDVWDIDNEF
# T3 sequence (P02786 89-760): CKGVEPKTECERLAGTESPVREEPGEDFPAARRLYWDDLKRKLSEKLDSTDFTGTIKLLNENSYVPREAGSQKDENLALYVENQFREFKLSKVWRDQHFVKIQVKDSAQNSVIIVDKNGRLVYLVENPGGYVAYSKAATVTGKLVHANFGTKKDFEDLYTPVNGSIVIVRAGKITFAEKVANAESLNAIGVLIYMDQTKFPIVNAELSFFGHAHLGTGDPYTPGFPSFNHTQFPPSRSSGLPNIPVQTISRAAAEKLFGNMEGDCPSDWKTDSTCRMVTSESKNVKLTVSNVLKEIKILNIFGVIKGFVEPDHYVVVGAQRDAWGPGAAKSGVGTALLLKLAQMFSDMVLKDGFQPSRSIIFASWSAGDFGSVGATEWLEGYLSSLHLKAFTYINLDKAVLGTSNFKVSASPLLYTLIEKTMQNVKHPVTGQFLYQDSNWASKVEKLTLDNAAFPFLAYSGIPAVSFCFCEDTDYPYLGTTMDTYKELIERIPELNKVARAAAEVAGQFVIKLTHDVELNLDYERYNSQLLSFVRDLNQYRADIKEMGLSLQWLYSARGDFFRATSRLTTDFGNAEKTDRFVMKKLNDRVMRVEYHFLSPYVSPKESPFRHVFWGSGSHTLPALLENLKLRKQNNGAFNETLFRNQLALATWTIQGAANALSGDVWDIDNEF
# T2 sequence (chain, as listed by the source): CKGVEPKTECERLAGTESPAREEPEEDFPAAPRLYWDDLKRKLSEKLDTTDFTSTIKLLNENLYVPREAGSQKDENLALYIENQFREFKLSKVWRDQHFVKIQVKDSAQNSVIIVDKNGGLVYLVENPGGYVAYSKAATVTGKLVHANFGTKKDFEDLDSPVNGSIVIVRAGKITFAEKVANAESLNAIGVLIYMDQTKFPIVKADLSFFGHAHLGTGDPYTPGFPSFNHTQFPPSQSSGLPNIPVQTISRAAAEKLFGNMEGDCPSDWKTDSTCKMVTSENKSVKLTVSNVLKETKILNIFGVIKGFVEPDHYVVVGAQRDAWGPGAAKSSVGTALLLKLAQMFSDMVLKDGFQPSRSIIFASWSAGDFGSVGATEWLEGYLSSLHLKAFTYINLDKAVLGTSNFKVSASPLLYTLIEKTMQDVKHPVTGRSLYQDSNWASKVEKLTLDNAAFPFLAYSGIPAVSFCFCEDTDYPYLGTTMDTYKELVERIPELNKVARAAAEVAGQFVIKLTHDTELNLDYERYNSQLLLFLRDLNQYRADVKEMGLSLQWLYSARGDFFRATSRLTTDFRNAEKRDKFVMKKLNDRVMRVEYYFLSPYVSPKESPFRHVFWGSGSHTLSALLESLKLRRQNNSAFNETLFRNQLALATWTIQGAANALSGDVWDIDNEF
# T8 sequence (P55899 24-297 limits assumed, form in doubt, chain 1 of 2): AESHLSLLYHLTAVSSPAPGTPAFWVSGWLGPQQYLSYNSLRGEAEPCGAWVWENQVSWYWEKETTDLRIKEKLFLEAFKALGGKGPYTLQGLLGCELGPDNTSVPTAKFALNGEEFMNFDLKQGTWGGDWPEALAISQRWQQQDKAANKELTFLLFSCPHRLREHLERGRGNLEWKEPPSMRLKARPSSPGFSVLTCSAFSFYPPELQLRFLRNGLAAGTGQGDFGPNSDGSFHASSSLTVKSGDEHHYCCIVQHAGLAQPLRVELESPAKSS
# T8 sequence (P61769 21-119 limits assumed, form in doubt, chain 2 of 2): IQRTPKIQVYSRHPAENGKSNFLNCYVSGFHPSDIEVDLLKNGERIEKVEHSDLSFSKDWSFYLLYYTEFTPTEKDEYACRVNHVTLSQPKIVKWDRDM
# T10 sequence (P08637 17-208 limits assumed): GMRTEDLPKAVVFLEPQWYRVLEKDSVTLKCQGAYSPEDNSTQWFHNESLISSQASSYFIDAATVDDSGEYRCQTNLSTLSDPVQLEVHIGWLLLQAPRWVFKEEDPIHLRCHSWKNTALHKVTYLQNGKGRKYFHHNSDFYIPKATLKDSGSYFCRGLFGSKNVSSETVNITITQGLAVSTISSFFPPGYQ
# T7 sequence (Q99376 whole entry): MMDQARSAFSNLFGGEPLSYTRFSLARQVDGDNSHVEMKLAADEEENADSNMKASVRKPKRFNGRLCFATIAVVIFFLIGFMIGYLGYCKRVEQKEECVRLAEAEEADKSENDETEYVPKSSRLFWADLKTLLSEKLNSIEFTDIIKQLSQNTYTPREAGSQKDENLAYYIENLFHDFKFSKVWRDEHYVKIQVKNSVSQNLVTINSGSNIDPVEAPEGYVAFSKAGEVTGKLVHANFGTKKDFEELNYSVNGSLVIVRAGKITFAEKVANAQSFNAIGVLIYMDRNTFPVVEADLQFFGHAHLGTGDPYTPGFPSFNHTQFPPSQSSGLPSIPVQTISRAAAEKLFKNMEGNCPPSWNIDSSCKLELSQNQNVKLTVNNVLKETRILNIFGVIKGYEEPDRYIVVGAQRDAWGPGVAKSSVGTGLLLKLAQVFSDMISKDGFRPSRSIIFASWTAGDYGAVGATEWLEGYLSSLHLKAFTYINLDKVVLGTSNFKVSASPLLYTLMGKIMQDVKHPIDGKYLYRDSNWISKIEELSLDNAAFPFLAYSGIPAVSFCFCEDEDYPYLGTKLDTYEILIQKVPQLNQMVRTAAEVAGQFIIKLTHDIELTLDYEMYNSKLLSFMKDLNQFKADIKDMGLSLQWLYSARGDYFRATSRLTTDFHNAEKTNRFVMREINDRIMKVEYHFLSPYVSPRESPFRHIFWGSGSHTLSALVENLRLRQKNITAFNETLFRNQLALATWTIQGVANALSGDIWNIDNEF
# T6 sequence (Q62351 89-763): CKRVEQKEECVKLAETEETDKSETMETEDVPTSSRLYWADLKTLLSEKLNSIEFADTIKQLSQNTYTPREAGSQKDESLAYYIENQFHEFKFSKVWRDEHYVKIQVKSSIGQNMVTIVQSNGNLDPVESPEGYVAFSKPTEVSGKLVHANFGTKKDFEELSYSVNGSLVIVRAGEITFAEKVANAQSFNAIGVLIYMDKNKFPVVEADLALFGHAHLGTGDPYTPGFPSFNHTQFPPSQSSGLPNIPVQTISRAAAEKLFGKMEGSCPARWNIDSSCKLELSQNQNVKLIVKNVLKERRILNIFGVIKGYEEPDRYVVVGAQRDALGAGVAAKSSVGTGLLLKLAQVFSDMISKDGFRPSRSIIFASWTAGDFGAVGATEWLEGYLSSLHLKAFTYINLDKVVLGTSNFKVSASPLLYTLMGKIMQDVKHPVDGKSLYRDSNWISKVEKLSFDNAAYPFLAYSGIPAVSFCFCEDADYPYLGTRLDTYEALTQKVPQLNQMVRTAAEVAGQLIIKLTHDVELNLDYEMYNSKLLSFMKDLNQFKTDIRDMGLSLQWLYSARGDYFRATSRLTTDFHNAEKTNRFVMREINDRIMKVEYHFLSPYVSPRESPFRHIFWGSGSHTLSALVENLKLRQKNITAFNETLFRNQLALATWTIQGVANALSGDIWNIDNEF
# T9 sequence (P08637 17-208 F176V): as the sequence (P08637 17-208 limits assumed) above, with F160V counted along it
Binder,Kd [1] [nM],Kd [2] [nM],Kd [3] [nM],Kd [4] [nM],Kd [5] [nM],Kd [6] [nM],EC50 (read off the curve) [7] [nM],also measured
B1,0.06,0.04,0.04,2,0.06,0.5,~0.06,
B2,0.07,0.04,0.05,2,0.05,0.7,~0.07,
B3,,0.03,,0.8,0.03,0.3,,binding result (recombinant mouse CD71): no binding; Kd [8]: 3 nM; Kd [9]: 2.29 nM; binding result [10]: no binding; Kd [11]: 3 nM; Kd [12]: 0.4 nM; Kd [13]: 0.3 nM
B4,,0.03,,,0.04,,,
B5,,,,,,,,binding result [14]: binds
B6,1.24,1.11,0.42,106,1.94,28,~1,"Kd (human FcRn): 4700 nM; Kd [15]: 4700 nM; EC50 (read off the curve) [16]: ~30 nM; Ratio anti-CD71-TF02.13-2011/Ab21.12 [17]: 127; Ratio anti-CD71-TF02.13-2011/anti-CD71-TF02.13-2011, matriptase activated [17]: 55; Ratio anti-CD71-TF02.13-2011/Ab21.12 [18]: 37; Ratio anti-CD71-TF02.13-2011/anti-CD71-TF02.13-2011, matriptase activated [18]: 28; Kd [19]: 180 nM; Kd [20]: 1800 nM; Ratio anti-CD71-TF02.13-2011/Ab21.12 [21]: 93; Ratio anti-CD71-TF02.13-2011/anti-CD71-TF02.13-2011, matriptase activated [21]: 56; Ratio anti-CD71-TF02.13-2011/Ab21.12 [22]: 65; Ratio anti-CD71-TF02.13-2011/anti-CD71-TF02.13-2011, matriptase activated [22]: 32"
B7,1.49,1.02,0.48,98.1,2.58,35,~1,Kd (human FcRn): 5300 nM; Kd [15]: 6200 nM; binding result (human FcγRI): binds; EC50 (read off the curve) [16]: ~30 nM; Kd [20]: 2100 nM
